Experiments:
Experiment in all cases: cell-based or functional assay
[1] = target: Hemagglutinin of H1N1 A/California/07/2009 virus (Influenza A virus A/California/07/2009 …)
[2] = target: Hemagglutinin of H1-WS33 virus (Influenza A virus (H1-WS33))
[3] = target: Hemagglutinin of H1-IVR148 virus (Influenza A virus (H1-IVR148))
[4] = target: Hemagglutinin of H13-MD77 virus (Influenza A virus (H13-MD77))
[5] = target: Hemagglutinin of H16-DE09 virus (Influenza A virus (H16-DE09))
[6] = target: Hemagglutinin of H9-RG26 virus (Influenza A virus (H9-RG26))

Row | Binder | IC50 (nM), cell viability microneutralization assay (MDCK) [1] [nM] | IC50 (nM), cell viability microneutralization assay (MDCK) [2] [nM] | IC50 (nM), cell viability microneutralization assay (MDCK) [3] [nM] | IC50 (nM), cell viability microneutralization assay (MDCK) [4] [nM] | IC50 (nM), cell viability microneutralization assay (MDCK) [5] [nM] | IC50 (nM), cell viability microneutralization assay (MDCK) [6] [nM]
1 | H1H11729P (antibody, V domains shown) VH: QVQLVQSGAEVKKSGSSVKVSCKASGGTFSSYAISWVRQAPGQGLEWMGGIIPIFGTPSYAQKFQDRVTITTDESTSTVYMELSSLRSEDTAVYYCARQQPVYQYNMDVWGQGTTVTVSS VL: DIQMTQSPSSLSASVGDRVTITCRASQGIRNNLGWYQQKPLKAPKRLIYAASSLQSGVPSRFSGSGSGTEFTLTISSLQPEDFATYYCLQYNNYPWTFGQGTKVEIK | 4.54 | 2.47 | 130 | 33.8 | 21.6 | 14.9
2 | H2aM11829N (antibody, V domains shown) VH: QVHLVQSGPEVKKPGSSVKVSCKASGVTFISHAISWVRQAPGQGLEWVGGIIAIFGTTNYAQKFQGRVTVTTDKSTNTVYMELSRLRSEDTAIYYCARGETYYEGNFDFWGQGTLVTVSS VL: VIQMTQSPSSLSASVGDRVTITCRASQSVRSNLNWYQQTPGKAPRLLIYAASSLQSGVPSRFSGSGSGTDFTLTISSLQPEDFATYYCQQSYSTPPITFGQGTRLEIK | 3.5 | 1.68 | 48 | 2.11 | 7.39 | 10.2
